Measured values published in paper PMC6555636.

Columns and labels:
[1] = molecular target: PTEX150 (P. falciparum (endogenous in strain NF54attB)); test: cryo-EM structure
[2] = molecular target: EXP2 (P. falciparum (endogenous in strain NF54attB)); test: cryo-EM structure

| Substance | stoichiometry N [1] | stoichiometry N [2] |
| --- | --- | --- |
| PTEX150 (natural protein) | 7 |  |
| EXP2 (natural protein) |  | 7 |
